Reference: the supplement of paper PMC9112550, “Optimization of the antimicrobial peptide Bac7 by deep mutational scanning” (BMC Biology, 2022)

Tested on: Escherichia coli TOP10
Test: shrunken log2 fold change of peptide-encoding DNA abundance (4.5 h post-induction vs induction); higher = less antimicrobial activity (less host growth inhibition)
Settings: time post-induction: 4.5 h; library: site-saturation at positions 5, 18, 19, 20
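Note: peptides expressed intracellularly from a pBAD plasmid library in pooled LB shake-flask culture, induced with 0.3% L-arabinose, DNA abundance read by NGS, three biological replicates, DESeq2 with apeglm shrinkage.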

Sequence	shrunken log2 fold change
RRIRVRPPRLPRPRPRPSMEPRP	-0.159
RRIRYRPPRLPRPRPRPKLYPRP	-0.65
RRIRYRPPRLPRPRPRPHDWPRP	-0.0744
RRIRDRPPRLPRPRPRPLPFPRP	-0.398
RRIRARPPRLPRPRPRPSVAPRP	0.485
RRIRNRPPRLPRPRPRPLTWPRP	-0.182
RRIRARPPRLPRPRPRPICHPRP	0.0398
RRIRVRPPRLPRPRPRPADEPRP	-0.0284
RRIRCRPPRLPRPRPRPSEWPRP	-0.214
RRIRTRPPRLPRPRPRPLSKPRP	-0.22
RRIRLRPPRLPRPRPRPWDEPRP	0.066
RRIRLRPPRLPRPRPRPWVIPRP	-0.0649
RRIRNRPPRLPRPRPRPALEPRP	0.025
RRIRDRPPRLPRPRPRPWEVPRP	-0.0135
RRIRERPPRLPRPRPRPLSSPRP	0.00508
RRIRGRPPRLPRPRPRPVCMPRP	0.406
RRIRNRPPRLPRPRPRPHIRPRP	-0.0139
RRIRPRPPRLPRPRPRPCLYPRP	-0.595
RRIRKRPPRLPRPRPRPWNWPRP	-0.00973
RRIRFRPPRLPRPRPRPYWTPRP	-0.651
RRIRNRPPRLPRPRPRPHCVPRP	0.0245
RRIRMRPPRLPRPRPRPRLGPRP	0.644
RRIRVRPPRLPRPRPRPGDQPRP	0.0324
RRIRWRPPRLPRPRPRPFHGPRP	-0.229
RRIRTRPPRLPRPRPRPGVPPRP	0.202

Sequence	shrunken log2 fold change
RRIRYRPPRLPRPRPRPRLGPRP	0.0954
RRIRFRPPRLPRPRPRPVDTPRP	-0.123
RRIRRRPPRLPRPRPRPQPYPRP	-0.142
RRIRYRPPRLPRPRPRPHIGPRP	0.0489
RRIRIRPPRLPRPRPRPNVGPRP	0.011
RRIRYRPPRLPRPRPRPMKQPRP	-0.0304
RRIRQRPPRLPRPRPRPCSAPRP	-0.257
RRIRPRPPRLPRPRPRPGDHPRP	-0.013
RRIRTRPPRLPRPRPRPENMPRP	-0.468
RRIRRRPPRLPRPRPRPQPEPRP	0.0541
RRIRSRPPRLPRPRPRPESTPRP	0.0707
RRIRVRPPRLPRPRPRPYWQPRP	-0.0663
RRIRVRPPRLPRPRPRPAPCPRP	0.168
RRIRARPPRLPRPRPRPHVWPRP	0.29
RRIRYRPPRLPRPRPRPTAQPRP	0.0778
RRIRVRPPRLPRPRPRPGKMPRP	-0.0672
RRIRMRPPRLPRPRPRPTPNPRP	0.87
RRIRHRPPRLPRPRPRPYIMPRP	-0.431
RRIRFRPPRLPRPRPRPSGWPRP	0.187
RRIRLRPPRLPRPRPRPGFKPRP	0.0325
RRIRHRPPRLPRPRPRPEMHPRP	0.0592
RRIRQRPPRLPRPRPRPAHTPRP	0.379
RRIRERPPRLPRPRPRPKEPPRP	0.131
RRIRKRPPRLPRPRPRPSRVPRP	0.24
RRIRMRPPRLPRPRPRPLWKPRP	0.0435

Sequence	shrunken log2 fold change
RRIRSRPPRLPRPRPRPPHNPRP	-0.0338
RRIRMRPPRLPRPRPRPIQPPRP	0.122
RRIRTRPPRLPRPRPRPYMFPRP	-0.776
RRIRGRPPRLPRPRPRPSTWPRP	0.22
RRIRRRPPRLPRPRPRPERQPRP	0.522
RRIRVRPPRLPRPRPRPESYPRP	0.45
RRIRDRPPRLPRPRPRPAPEPRP	0.225
RRIRTRPPRLPRPRPRPACIPRP	0.599
RRIRDRPPRLPRPRPRPQSMPRP	0.0598
RRIRLRPPRLPRPRPRPLGHPRP	-0.0858
RRIRCRPPRLPRPRPRPYMNPRP	-0.99
RRIRERPPRLPRPRPRPDWHPRP	-0.12
RRIRFRPPRLPRPRPRPQWQPRP	-0.08
RRIRVRPPRLPRPRPRPGKGPRP	0.0187
RRIRDRPPRLPRPRPRPTDPPRP	0.0862
RRIRQRPPRLPRPRPRPKYAPRP	-0.285
RRIRTRPPRLPRPRPRPPERPRP	0.351
RRIRHRPPRLPRPRPRPMVDPRP	-0.222
RRIRPRPPRLPRPRPRPKFKPRP	0.0351
RRIRERPPRLPRPRPRPHNQPRP	-0.325
RRIRDRPPRLPRPRPRPACQPRP	0.0344
RRIRQRPPRLPRPRPRPITQPRP	-0.132
RRIRRRPPRLPRPRPRPSVNPRP	-0.308
RRIRSRPPRLPRPRPRPPGKPRP	-0.0498
RRIRNRPPRLPRPRPRPLHSPRP	-0.16

Sequence	shrunken log2 fold change
RRIRPRPPRLPRPRPRPPKLPRP	0.172
RRIRWRPPRLPRPRPRPYAFPRP	0.107
RRIRVRPPRLPRPRPRPDRAPRP	-0.0118
RRIRRRPPRLPRPRPRPKYKPRP	-0.148
RRIRIRPPRLPRPRPRPSIMPRP	-0.469
RRIRERPPRLPRPRPRPIDSPRP	-0.0823
RRIRGRPPRLPRPRPRPCPRPRP	0.23
RRIRFRPPRLPRPRPRPPNYPRP	-0.023
RRIRMRPPRLPRPRPRPCRWPRP	0.00911
RRIRVRPPRLPRPRPRPHGMPRP	-0.582
RRIRKRPPRLPRPRPRPGQMPRP	0.00812
RRIRIRPPRLPRPRPRPTSLPRP	-0.14
RRIRKRPPRLPRPRPRPHKQPRP	0.164
RRIRCRPPRLPRPRPRPFPWPRP	-0.361
RRIRQRPPRLPRPRPRPPHDPRP	1.12
RRIRYRPPRLPRPRPRPCATPRP	0.0757
RRIRRRPPRLPRPRPRPYWMPRP	-0.205
RRIRDRPPRLPRPRPRPTHEPRP	1.09
RRIRHRPPRLPRPRPRPVPGPRP	-0.163
RRIRIRPPRLPRPRPRPGCKPRP	-0.0374
RRIRPRPPRLPRPRPRPMCVPRP	0.076
RRIRDRPPRLPRPRPRPVTHPRP	-0.0987
RRIRARPPRLPRPRPRPFGMPRP	0.0196
RRIRRRPPRLPRPRPRPLQCPRP	0.18
RRIRERPPRLPRPRPRPCCTPRP	-0.243

Sequence	shrunken log2 fold change
RRIRHRPPRLPRPRPRPTRVPRP	0.211
RRIRMRPPRLPRPRPRPFLYPRP	-0.124
RRIRLRPPRLPRPRPRPHHRPRP	-0.263
RRIRQRPPRLPRPRPRPPAYPRP	0.106
RRIRVRPPRLPRPRPRPGIPPRP	-0.103
RRIRHRPPRLPRPRPRPNEWPRP	-0.0925
RRIRRRPPRLPRPRPRPDNPPRP	-0.582
RRIRARPPRLPRPRPRPFFQPRP	0.107
RRIRIRPPRLPRPRPRPTILPRP	-0.248
RRIRNRPPRLPRPRPRPCCYPRP	-0.0141
RRIRGRPPRLPRPRPRPDDFPRP	0.0116
RRIRIRPPRLPRPRPRPKKIPRP	-0.526
RRIRGRPPRLPRPRPRPHVQPRP	0.262
RRIRQRPPRLPRPRPRPFQPPRP	0.0592
RRIRARPPRLPRPRPRPAYKPRP	-0.0413
RRIRARPPRLPRPRPRPVCIPRP	0.11
RRIRGRPPRLPRPRPRPHMAPRP	0.271
RRIRPRPPRLPRPRPRPDFFPRP	-0.0853
RRIRSRPPRLPRPRPRPHYCPRP	-0.289
RRIRDRPPRLPRPRPRPDKSPRP	-0.119
RRIRHRPPRLPRPRPRPKMWPRP	0.451
RRIRRRPPRLPRPRPRPCTNPRP	0.0186
RRIRQRPPRLPRPRPRPIDPPRP	0.0328
RRIRARPPRLPRPRPRPRTYPRP	-0.126
RRIRPRPPRLPRPRPRPTYMPRP	-0.0483

Sequence	shrunken log2 fold change
RRIRIRPPRLPRPRPRPQHYPRP	-1.3
RRIRYRPPRLPRPRPRPFETPRP	0.111
RRIRARPPRLPRPRPRPCDWPRP	0.353
RRIRTRPPRLPRPRPRPQLDPRP	-0.0457
RRIRDRPPRLPRPRPRPHFQPRP	-0.236
RRIRRRPPRLPRPRPRPRGRPRP	0.319
RRIRMRPPRLPRPRPRPPLRPRP	0.852
RRIRPRPPRLPRPRPRPYTQPRP	-0.608
RRIRKRPPRLPRPRPRPTSKPRP	0.443
RRIRERPPRLPRPRPRPEEHPRP	-0.0183
RRIRFRPPRLPRPRPRPTNIPRP	-0.959
RRIRGRPPRLPRPRPRPVPFPRP	0.289
RRIRWRPPRLPRPRPRPISTPRP	-0.399
RRIRYRPPRLPRPRPRPEAGPRP	-0.0468
RRIRCRPPRLPRPRPRPNFWPRP	-0.136
RRIRMRPPRLPRPRPRPAYAPRP	0.0769
RRIRIRPPRLPRPRPRPVLLPRP	-0.03
RRIRRRPPRLPRPRPRPMVWPRP	0.686
RRIRIRPPRLPRPRPRPWLEPRP	-0.293
RRIRSRPPRLPRPRPRPRIIPRP	-0.712
RRIRFRPPRLPRPRPRPADHPRP	0.00851
RRIRNRPPRLPRPRPRPASDPRP	0.278
RRIRHRPPRLPRPRPRPMVSPRP	-0.00841
RRIRVRPPRLPRPRPRPDSKPRP	-0.34
RRIRLRPPRLPRPRPRPTAAPRP	0.897
